Protein production data for 20 sequences are collected here from a protein production outcome set (Wang et al. 2014).
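Note: failed if final PepcDB status was selected cloned or expressed and not failed if soluble or beyond.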

A short description of the data set: label from the status in PepcDB records.
With “GYIQMPLFRLHVQVFTPEREIPLGTVCLLHGYLEHSGIYQPIIREILDQGFSVVTYDLPGHGLSDGSPANIQNFDHYQQVLMAVYQYVKNADQLPKPWLGIGQSTGGAIWMHHLLEYAEKRQDPIVDRVLLLSPLIRPAKTAWWHNSVGLGIIRRIRRQVPRHFRRNNHNPEFLRFIRLKDPLQPRMMGMDWILAMSKWMFEMEQRPACRIPVWLAQGALDQTVDWRYNIEFIRRKFRLQTLLMLEEGSHQLINERADIRAALTGLIPAFLHAR”, the protein production entry is “failed”.

Take “MLGKSQKDDHKTTFNKHKKTFSIIVAIKDESKQVIESLVENLKRINYERYEVIIVSDDDESKFREYLEIKFPENFRLIRRESNSGGKAGALNFASRISKGDYLVFMDADARVNEDFLQRLNNKDYVACSLKIIIYDTSTSIQSYYAEFTEKVMDMMFKGRSKLGLPIFPNGSAFSIRRDTLLSIGGWKENAIAEDLELGIRMYLNDLKNLFYDDVVVFLKSPYTLMDLYNQIQRWSYGSSQLLKSSLKLLKKGIKGFEGLLYSQQWVIYPLFFTVLGVYGILTPVFNITQTYLLLLILIYGISVVFYSQVLNQKRVDIKILKTILDASITGYLKGLFGLKYKWRVTPKILDKGGRLIEDNNIPLISIPFYLISFFDASMGFVLSSIVILLVALIESF”: the protein production entry is reported as “failed”.

“MRTALLEVGLEELPASEFHSILKQLEEKSAELLKAYRVSSGSVEVFVGSRRFGVILKNLPERQEDFTEEKKGPPLNVAYDENGKPTRALEGFLRNNNASLENVVHREGYVYLSRVVEGKPVEEVLPDLFRDLVLGLNFRKPMRWGSGEHEYIRPVHWIVAMVDGRVLDLEIFGLRSSRISYGKRYHAGSIEIPDSERYYESLKKGFVISSHLERKKFVLEQIDEFEKRSSMKIERDEELIEEIVAITEYPRIVVGQFDRKYLELPEEIIVTAVKHHQRSFIAHKGTLTNTFVAFQDGPQPPENVVKGYERVINARLEDARYYFQKDLETPLEKMNEKLKEIVFQEKLGTLYDKVERIKKISQRLCEDLKLPGSFTQKVLEAASICKADIASKVVYEFPELQGVMGRIYALREGINEEIATAIEDHYSEEPQTVIGSILGIADRIDTIVGNFAIGNVPTSSKDPYGLKSKADTIFRIIRKNEWDISLEELLTFASSLVGYRLSEELETFFAGRFYQFLINELGISFDVARAVNHLWKKPLR”: the protein production entry is “failed”.

As for “GSESFDILTDPAQAKEVGTALGIFHQLLSDLSPSQLVDTLPGFHHTPIYLQQYQRALAQNPKLTGSLGPEINHCQRVIKTWLDQCGVLETAKAQGQLPLRLMHGDPKVNNILFDRQSGKAVSVIDLDTTKPGLIHYDLGDCLRSGCNLLGEETENWSAVEFDLDLCRAILEGYLPQCQHFLTAADYDYLCPAIVLISFELGLRFFTDYLNGDRYFKVKYPEHNLIRALVQFQLASHIQSQEDAIRRMIEDIRG”, the protein production result was “failed”.

In the case of “MTKKKAHKPGSATIALNKRARHEYFIEEEFEAGLALQGWEVKSLRAGKANISDSYVLLRDGEAFLFGANITPMAVASTHVVCDPTRTRKLLLNQRELDSLYGRVNREGYTVVALSLYWKNAWCKVKIGVAKGKKQHDKRSDIKEREWQVDKARIMKNAHR”, the protein production entry is “not failed”.

For the sequence “MATATTTKTKTKATKKTRAKKATKKRATPKKNLVIVESPAKAKTIEKYLGRNYKVVASVGHIRDLKKSSMSIDFENNYEPQYINIRGKGPLIKELKKEAKKAKKVFLASDPDREGEAISWHLSHILGLEPEDKNRVVFNEITKDAVKNAFAEPRAIDMDLVDAQQARRVLDRIVGYSISPLLWKKVKKGLSAGRVQSVALKLIIDRENEIKAFKPEEYWTIDGAFKKGAKKFQASFYGLDGKKLKLNNNDDVKDVLSRIISDDFNVDKVEKKERRRNAPLPYTTSSLQQDAANKINFRTRKTMMVAQQLYEGINLGSGAQGLITYMRTDSTRISPVAQNQAAEFITERYGSKYSKHGSKVKNSSAAQDAHEAIRPSNVFQTPESIAKYLDKDQLKLYTLIWNRFVASQMTAAVFDTMKVTLSQNGVIFTANGSQIKFDGYMAVYNDSDKNKMLPEMAEGDTIKKVVTTPEQHFTQTPARYSEATLIKTLEENGVGRPSTYAPTLDVIQRRYYVKLVAKRFEPTELGEIVNSLIVEFFPDIVDVKFTAEMEAKLDKVEIGKEQWQKVIDEFFKPFQKELEKAEEGIEKIQIKDEPAGFDCDLCGHPMVIKLGRYGKFYACSNFPDCHNTKAITKEIGVTCPTCGQGQVIERKTKRNRVFYGCDRYPDCEFTSWDIPIGRNCPKSGDYLVEKKVRGGGKQVICSNEECDYKESVIK”, the protein production entry is recorded as “failed”.

For the sequence “MPQRRPLRTMKWLIPGLWLASILFAHFRGRVRLSLSRQMLDHSVLLAPVNAFMVLTSRVPTTPYLTTSEIPELKVLDDNWETIRDEALKMAELRRIKAAERHDDIGFNSFFKYGWKRFYLKWYDARHPSAEELCPKTVAILKSLPKVKAAMFAELPPGGKLNPHRDPFSGSLRYHLGLATPNDDRCYIAVDGESYSWRDGESVVFDETYVHEAHNKSEGNRIILFCDVERPLKWRWAEAFNRWFGRVVMSAASSPNDAGDQTGAINKLTHAHWVIDQKRKQFKAWNRTVYKATKWGLIALVAIGFLAL”, the protein production result was “failed”.

For the sequence “MQRQGSGGGSAVIRVRVAGGVLLAAHLMLVVWITLRPLDVPWVSPANLHPFAGIRADLALGPREAVRRIGEGLGLLAPLGVLLPMVAGRLAVSPLASLTRTVAAGALISLGIELLQTGVPGQVVDVDSLLLNTVGVALAHLAIVPAGRARLRRRAETRRRAALGREELSQGLTPTIPRVGIAP”, the protein production entry was “failed”.

Turning to “MIYLAITTLIWAFSFGLIGNALKGLDPLQIADTRLLLALIAFIPFMKFGNTNGKEKRQLILLGALQYGVMYTCYLSAFRYLPSHLVALFSVLTPLYIVIINDLRQRSFTPWYLVATVLSVFGAAIIKMGNIDSNEIWLGFGLMQVANLAFAFGQVYYRDWKRSRAHITDSSIFGFLYLGAAIFTTIATLLISHQPPIPLNATPTQWFVLVYMGIIASGLCFFLWNKGGTQTSVGVLATFNNAVVPLAMFASLFIFGEAKGGTPEELVRLTIGSLLIVSALLIAKRK”, the protein production result was “failed”.

With “MKRKSLKSFIYVSALLVFLSGFVGVSLFVKSEVVEATTIGDDYPVKWKNLPLGGAIDDWRMYTRYCTSFVAYRLSTANNFELPSGFGNADRWGTEAMARGYKVDKNPKVGSVAWWTSTHVAWVAEVSGDNVKVEEYNYGFDGKYNTRWINKNSANGYIHFKDMPQTPVGWYNNGHYDYYYYADGTKAIGLTWVGTKRYNFDKNGAMYKNAWTNSDKYSYYSTSDGSLAVGLTWVGTKRYNFDKNGAMYKNAWTNSDKYSYYSTSDGSLAVGLTWVGTKRYNFDKNGAMYKNAWTNSDKYSYYSTSDGSLAVGHQQIGENKYIFDKNGALYKNMWVDLDGNRYYSKEDGALAIGEQIIDGITYMFDESGKLVNNLEHHHHHH”, the protein production result is recorded as “not failed”.

Consider “MAGLVQKFKQMWTPPEDEYDYDFEEMDMDDEEVMDEISSSSYEEEEAYQEPQRESRRSSAPQSGNKVVNIHAAAQLQVVLFKPERFGDETRSVADELIKMHTVVLNLENTSKDVSRRILDFLSGVAYANNGKIKRVSTATFIITPYNVDLTGDDLMDEIESSSMYL”, for which the protein production entry is recorded as “failed”.

“MNFPISTIRIGGWVVVAKNPDDIVAKFYFAKKKLIWEFLFGEPETNTLRLKRKIEIQWNDVSSFEESISSRDETGILKIELKKRPTFFIETNPQAGKHTQWKQLDHDFTGDHASNYRRHTLHFPPGVLQKNLEKLVTDSFWSKLYEVPFPVHESRYFDSGFENNSSRNSHSHTVGFNVNNGPQHHFSQGIGGVGVGEGNFSMANGGWQRNSYSPVNSLNYNTANEFFGMQATPPSSQVVNEHYNTQNDFTGSQFGYHMNQDEIQKILESQAYAVPDTQTKLMSSAMNNVPKYPQAGSCLESMLFWYEHRRRFQQ”: the protein production result was “failed”.

Turning to “MFRSIKVASIVQIVFAVCAVLLALTVFEYKKALNTFTNDLNLTVSNTLTRLQVNLPKPLWDFDLETVKSAISAELKTPEISSIKITDTTGKAILYLTLDQATDDKGLRKTIAVENEGALAELASVSGELEFVEYGKKNPLGSIEIRYSDEFMHQQLAEYVSFNLLKVLILAILIPCMLFIILNFSVLKPLNELGDKTRTTIQWGCRPHPSVTRS”, the protein production result was “failed”.

For “MTHIQLDFSKTLEFFGEHELKQQQEIVKSIHKTIHEGTGAGSDFLGWVDLPVDYDKEEFSRIVEASKRIKENSDVLVVIGIGGSYLGARAAIEMLTSSFRNSNEYPEIVFVGNHLSSTYTKELVDYLADKDFSVNVISKSGTTTEPAVAFRLFKQLVEERYGKEEAQKRIFATTDKEKGALKQLATNEGYETFIVPDDVGGRYSVLTAVGLLPIATAGINIEAMMIGAAKAREELSSDKLEENIAYQYATIRNILYAKGYTTEMLINYEPSMQYFNEWWKQLFGESEGKDFKGIYPSSANYTTDLHSLGQYVQEGRRFLFETVVKVNHPKYDITIEKDSDDLDGLNYLAGKTIDEVNTKAFEGTLLAHTDGGVPNMVVNIPQLDEETFGYVVYFFELACAMSGYQLGVNPFNQPGVEAYKQNMFALLGKPGFEDLKKELEERL”, the protein production result is recorded as “failed”.

“MFRLEDFNFHNKTVFLRVDLNSPMKDGKIISDARFKAVLPTIRYLIESGAKVVIGTHQGKPYSEDYTTTEEHARVLSELLDQHVEYIEDIFGRYAREKIKELKSGEVAILENLRFSAEEVKNKPIEECEKTFLVKKLSKVIDYVVNDAFATAHRSQPSLVGFARIKPMIMGFLMEKEIEALMRAYYSKDSPKIYVLGGAKVEDSLKVVENVLRRERADLVLTGGLVANVFTLAKGFDLGRKNVEFMKKKGLLDYVKHAEEILDEFYPYIRTPVDFAVDYKGERVEIDLLSENRGLLHQYQIMDIGKRTAEKYREILMKARIIVANGPMGVFEREEFAIGTVEVFKAIADSPAFSVLGGGHSIASIQKYGITGITHISTGGGAMLSFFAGEELPVLRALQISYEKFKEVVK”: the protein production result was “not failed”.

For “QHTLKQFAADSALTTTTPLCSEVPLFDINALGDWTYLGTSLPAKFAKLFASILHCIDDEYFLITPVEKVRVQVEDAPLLIVDFERAQPHSLLNVSTSIGTLHHNVDIKQMKLTDDSVYLPLERGLWGKLGRACYYNFVNEFNLSDLNEQ”, the protein production result is “not failed”.

As for “MLTKSVAVITSTIGRPELERAIQSVQQQTYPCQHYVFVDGVQFAEQAKQILDKYPQVIVTYLPMNTGANGWSNSSINAIAPFLAKEDMICYLDDDNWYEPNHVETCLTCLMQNQLDYVYSYRNLINSVNNHFICRDTFESVGPNKALKLDISSNMLNIAGSIQLHNENHIDTNTYFLTRKVALEASQYWYSGRSNDNNVSNWLLFSAYKGICTKTYSVNYLFDPTTFFNTFYQMICQNTPLNSSEQDKIAILEALIRAISDSQASD”, the protein production entry is given as “failed”.

For the sequence “MTNPETASDNSRDLVLVRRFDAPCDLVFRAWTDPKALAQWCGPHGFKAVGDRLEAWPGGRHRACLIAPDGEEHWVGGKYLEVEPPHRLVFTHAWETGAGETSPETIVTITLRESDGGTEMTFRQSGFASVSSLEGHESGWSQSFERLSSFLGTGSEGLNHA”, the protein production result is reported as “failed”.

“SKHAKSFKDDMYLRTEHVVWQKEMLTLARLAAAVDMAAADSKDVANSHIFDAMVNQKIKLQNPEVLKKWLGEQTAFDGKKVLAAYESPESQARADKMQELTETFQIDGTPTVIVGGKYKVEFADWESGMNTIDLLADKVREEQKAAQ”: the protein production result is reported as “failed”.

In the case of “MHFHLRNLRLHMETNGTPQSPAGDWRSYERMLLPPIQDLHKLGVYEEHGGYDRLRRVLEDDAFEPSDVTDEVKASGLTGRGGAGFPTGIKWTFMPEPDERPRFIGVNADESEPGTFKDRQVMEYNPHLMLEGILLAGYALHIDTAYVYIRGEYTDWIVHLKEQLENAYEAGYVGENIMGSDFTMDIVLHKGAGAYICGEETSLMESLEGKRGYPRYKPPFPAQSGIFGSPTTINNAETLAHVPLIVEQGGEAYSNIGAGDMPGPALYGMSGHVKNPGVYEFPTGMLLTDMIYDVCGGMARDKDLKAVVPGGSSVPPVPADQIDGISMNDESLGEVGSRTGTFCPLVLDEETDMVSFLRRVAHFYQDETCGQCTPCREGTSWLEKILARIDEGEGRMRDIDLLLELCDNMDGGRTICAFADGAVGPVRATVKRFREEFAAKCQASVHPVSTEVSAGAGSAVAATE”, the protein production result is given as “failed”.
